# Source: paper PMC5473844, “Structural and Biochemical Characterization of Poly-ADP-ribose Polymerase from Trypanosoma brucei”
# T1: TBP-FL (TbPARP full-length) (Trypanosoma brucei, UniProt Q0PW89 1-573)
# T1 sequence: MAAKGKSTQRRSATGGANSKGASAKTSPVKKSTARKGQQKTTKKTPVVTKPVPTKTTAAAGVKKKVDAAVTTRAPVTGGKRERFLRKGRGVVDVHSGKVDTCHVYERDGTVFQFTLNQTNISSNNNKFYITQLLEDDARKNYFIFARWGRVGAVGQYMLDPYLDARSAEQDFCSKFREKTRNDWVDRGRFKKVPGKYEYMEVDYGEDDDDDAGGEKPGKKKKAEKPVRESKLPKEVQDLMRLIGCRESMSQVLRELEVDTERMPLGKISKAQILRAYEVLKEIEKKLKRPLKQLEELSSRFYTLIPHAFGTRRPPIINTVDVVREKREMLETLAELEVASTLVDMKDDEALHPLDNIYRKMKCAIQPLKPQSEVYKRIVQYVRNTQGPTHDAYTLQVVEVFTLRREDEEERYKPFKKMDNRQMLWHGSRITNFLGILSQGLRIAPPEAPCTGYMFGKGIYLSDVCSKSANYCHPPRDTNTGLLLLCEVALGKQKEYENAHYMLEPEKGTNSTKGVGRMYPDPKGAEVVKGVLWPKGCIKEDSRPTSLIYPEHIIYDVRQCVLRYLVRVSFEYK
# T2: TBP-N (Trypanosoma brucei, UniProt Q0PW89 1-100)
# T2 sequence: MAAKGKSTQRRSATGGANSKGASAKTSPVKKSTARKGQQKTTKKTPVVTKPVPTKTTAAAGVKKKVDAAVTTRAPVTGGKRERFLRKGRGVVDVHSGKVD
# T3: TBP-NW (Trypanosoma brucei, UniProt Q0PW89 1-197)
# T3 sequence: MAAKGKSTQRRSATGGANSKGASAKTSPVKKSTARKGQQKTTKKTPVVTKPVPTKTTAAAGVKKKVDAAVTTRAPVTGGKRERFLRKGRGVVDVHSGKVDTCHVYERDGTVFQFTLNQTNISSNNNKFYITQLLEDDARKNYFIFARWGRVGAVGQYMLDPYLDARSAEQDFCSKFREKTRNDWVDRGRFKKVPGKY
# What was measured:
# [1] = target: T1, TBP-FL (TbPARP full-length); assay: EMSA; FP: 10 mM HEPES pH 8, 0.1 mM TCEP, 0.1 mM EDTA, 175 mM NaCl, 25 C, 5 nM DNA (250 nM for stoichiometry); EMSA: 50 mM Tris pH 7, 0.1 mM TCEP, 0.1 mM EDTA, 5% glycerol, 100 mM NaCl, room temperature, 0.5 uM DNA; details: protein: recombinant; tags: 6xHis-thioredoxin tag removed with TEV; blunt
# TBP-N = target: T2, TBP-N; assay: as above; details: protein: recombinant; tags: 6xHis tag removed with TEV; blunt
# TBP-NW = target: T3, TBP-NW; assay: as above; details: protein: recombinant; tags: 6xHis-thioredoxin tag removed with TEV; blunt
# [2] = target: T1, TBP-FL (TbPARP full-length); assay: EMSA; higher protein needed for full supershift; FP: 10 mM HEPES pH 8, 0.1 mM TCEP, 0.1 mM EDTA, 175 mM NaCl, 25 C, 5 nM DNA (250 nM for stoichiometry); EMSA: 50 mM Tris pH 7, 0.1 mM TCEP, 0.1 mM EDTA, 5% glycerol, 100 mM NaCl, room temperature, 0.5 uM DNA; details: protein: recombinant; tags: 6xHis-thioredoxin tag removed with TEV; 3' overhang 4 nt (TCGA) on strand 1, other end blunt
# [3] = target: T1, TBP-FL (TbPARP full-length); assay: fluorescence polarization (stoichiometry); 50 mM NaCl; non-specific, no clear inflection; FP: 10 mM HEPES pH 8, 0.1 mM TCEP, 0.1 mM EDTA, 175 mM NaCl, 25 C, 5 nM DNA (250 nM for stoichiometry); EMSA: 50 mM Tris pH 7, 0.1 mM TCEP, 0.1 mM EDTA, 5% glycerol, 100 mM NaCl, room temperature, 0.5 uM DNA; details: protein: recombinant; tags: 6xHis-thioredoxin tag removed with TEV; label: 5' FAM on strand 1; blunt
# [4] = target: T1, TBP-FL (TbPARP full-length); assay: fluorescence polarization; low nanomolar affinity (value only in figure); 1:1; FP: 10 mM HEPES pH 8, 0.1 mM TCEP, 0.1 mM EDTA, 175 mM NaCl, 25 C, 5 nM DNA (250 nM for stoichiometry); EMSA: 50 mM Tris pH 7, 0.1 mM TCEP, 0.1 mM EDTA, 5% glycerol, 100 mM NaCl, room temperature, 0.5 uM DNA; details: protein: recombinant; tags: 6xHis-thioredoxin tag removed with TEV; label: 5' FAM; single strand
# [5] = target: T1, TBP-FL (TbPARP full-length); assay: SEC-SAXS; 1:1 complex, non-activating DNA; FP: 10 mM HEPES pH 8, 0.1 mM TCEP, 0.1 mM EDTA, 175 mM NaCl, 25 C, 5 nM DNA (250 nM for stoichiometry); EMSA: 50 mM Tris pH 7, 0.1 mM TCEP, 0.1 mM EDTA, 5% glycerol, 100 mM NaCl, room temperature, 0.5 uM DNA; details: protein: recombinant; tags: 6xHis-thioredoxin tag removed with TEV; hairpin, 28 bp stem, TTTT loop, 3' overhang 4 nt
# [6] = target: T1, TBP-FL (TbPARP full-length); assay: SEC-SAXS; 2:1 protein:DNA complex, activating DNA; FP: 10 mM HEPES pH 8, 0.1 mM TCEP, 0.1 mM EDTA, 175 mM NaCl, 25 C, 5 nM DNA (250 nM for stoichiometry); EMSA: 50 mM Tris pH 7, 0.1 mM TCEP, 0.1 mM EDTA, 5% glycerol, 100 mM NaCl, room temperature, 0.5 uM DNA; details: protein: recombinant; tags: 6xHis-thioredoxin tag removed with TEV; hairpin, 28 bp stem, TTTT loop, 3' overhang 4 nt
binder,measurement,setting,value
template 1 (dsDNA) DNA 1: CCAGGACCAGGGCGCAGATCACCTTGTTCTCCA DNA 2: TGGAGAACAAGGTGATCTGCGCCCTGGTCCTGG,binding result,[1],binds
same,binding result,TBP-N,binds
same,binding result,TBP-NW,binds
"template 6 (dsDNA, 5' phosphate on strand 2) DNA 1: CGCGCTAAGGCTCATGCTACACTAGAGCTCGA DNA 2: GCTCTAGTGTAGCATGAGCCTTAGCGCG",binding result,[2],binds
template 20 (dsDNA) DNA 1: CAGCAGGTACCTGCCCGGCGCCCAGAGAGGAATGCAACACTC DNA 2: GAGTGTTGCATTCCTCTCTGGGCGCCGGGCAGGTACCTGCTG,binding result,[3],binds
CAGCAGGTACCTGCCCGGCGCCCAGAGAGGAATGCAACACTC (ssDNA) [template 21],binding result,[4],binds
template 14 (structured_DNA) DNA: GCTCTAGTGTAGCATGAGCCTTAGCGCGTTTTCGCGCTAAGGCTCATGCTACACTAGAGCTCGA,binding result,[5],binds
"template 15 (structured_DNA, 5' phosphate) DNA: GCTCTAGTGTAGCATGAGCCTTAGCGCGTTTTCGCGCTAAGGCTCATGCTACACTAGAGCTCGA",binding result,[6],binds
